Laboratory results from patent publication US20100167390, “Novel Oligonucleotide and NF-kB Decoy Comprising the Same” (published 2010).

T1: NF-kB p52 (NFKB2) (UniProt Q00653 Q00653:1-454)
T1 sequence: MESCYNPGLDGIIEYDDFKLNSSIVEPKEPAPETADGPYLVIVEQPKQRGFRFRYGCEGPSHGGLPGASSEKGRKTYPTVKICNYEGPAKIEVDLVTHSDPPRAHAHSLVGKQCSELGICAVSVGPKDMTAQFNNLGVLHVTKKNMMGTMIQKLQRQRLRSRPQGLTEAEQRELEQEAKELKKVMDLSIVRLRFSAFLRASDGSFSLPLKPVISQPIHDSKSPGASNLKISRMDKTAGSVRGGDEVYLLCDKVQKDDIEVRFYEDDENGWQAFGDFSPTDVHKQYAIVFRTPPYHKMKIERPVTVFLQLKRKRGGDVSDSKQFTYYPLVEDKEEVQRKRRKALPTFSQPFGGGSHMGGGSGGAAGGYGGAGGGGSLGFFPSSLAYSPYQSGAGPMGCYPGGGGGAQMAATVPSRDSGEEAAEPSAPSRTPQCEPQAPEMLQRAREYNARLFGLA

B1: SODN91 (dsDNA)
DNA 1: GTAAAATGGGATTTCCCGAG
DNA 2: CTCGGGAAATCCCATTTTAC
modifications: PS all bonds, both strands
B2: PSODN9 (dsDNA)
DNA 1: GGAGGGATTTCCCGGG
DNA 2: CCCGGGAAATCCCTCC
modifications: PS only within consensus gggatttccc, both strands
B3: SODN83 (dsDNA)
DNA 1: CAAGTAGGGATTTCCCATAC
DNA 2: GTATGGGAAATCCCTACTTG
modifications: PS all bonds, both strands
B4: PSODN7 (dsDNA)
DNA 1: CGCGGGATTTCCCAGC
DNA 2: GCTGGGAAATCCCGCG
modifications: PS only within consensus gggatttccc, both strands
B5: SODN8 (dsDNA)
DNA 1: CCCGGGATTTCCCACC
DNA 2: GGTGGGAAATCCCGGG
modifications: PS all bonds, both strands
B6: SODN17 (dsDNA)
DNA 1: CCCTGGGATTTCCCGCC
DNA 2: GGCGGGAAATCCCAGGG
modifications: PS all bonds, both strands
B7: PSODN30 (dsDNA)
DNA 1: GGCTGGGATTTCCCGCGG
DNA 2: CCGCGGGAAATCCCAGCC
modifications: PS only within consensus gggatttccc, both strands
B8: SODN16 (dsDNA)
DNA 1: CGCAGGGATTTCCCGCG
DNA 2: CGCGGGAAATCCCTGCG
modifications: PS all bonds, both strands
B9: SODN9 (dsDNA)
DNA 1: GGAGGGATTTCCCGGG
DNA 2: CCCGGGAAATCCCTCC
modifications: PS all bonds, both strands

Tests used:
NF-kB p65 (RelA) [1] = molecular target: T2, NF-kB p65 (RelA) (UniProt Q04206 Q04206:1-551); experiment: competition; primary screen 3.06; conditions: protein: extract; tags: TPA and CI-stimulated Jurkat nuclear extract, Active Motif TransAM kit
Description: (§1) The measurement was performed in accordance with the instructions attached to the kit. The kit was made for quantifying the NF-κB bound to the solid phase by ELISA after adding an NF-κB solution to the wells in which the NF-κB (p65 protein) consensus binding sequence was immobilized and after washing the resultant. By this measurement method, the higher the binding capacity of the oligonucleotide to the NF-κB, the smaller amount of the NF-κB quantified by the ELISA.
(§2) More concretely, the above-described measurement was carried out as follows concretely: Each SODN solution was serially diluted with Complete Binding Buffer contained in the kit to prepare test samples (common ratio: 3-fold, 4 times, n=3). […] After allowing coloration for 10 minutes, the Stop Solution was added to stop the reaction, and the absorbances at 450 nm and 630 nm were measured.
(§3) The absorbance at 630 nm was subtracted from the absorbance at 450 nm and the mean value of the blanks was further subtracted from the resultant, and the percentage of the mean value of each concentration based on the mean value of the controls was calculated. The concentration at which the calculated value was 50% (i.e., at which the binding was inhibited by 50%) was calculated from the regression lines between two points interposing 50% (an analysis software Graph Pad PRISM 4, GraphPad SOFTWARE was used). […]

NF-kB p65 (RelA) [2] = molecular target: T2, NF-kB p65 (RelA); experiment: competition; conditions: protein: extract; tags: TPA and CI-stimulated Jurkat nuclear extract, Active Motif TransAM kit
Description: The binding capacity of each SODN to NF-κB was evaluated by measuring the remaining free NF-κB after reacting each SODN with NF-κB (p65), using a commercially available kit (TransAM Kit (NF-κB, p65, ACTIVE MOTIF) for measuring NF-κB, and using NF-κB molecules in the Jurkat, TPA and CI-Stimulated, Nuclear Extract (nuclear extract of Jurkat cells stimulated with a phorbol ester (TPA) and a calcium ionophore (CI)). The measurement was performed in accordance with the instructions attached to the kit. The kit was made for quantifying the NF-κB bound to the solid phase by ELISA after adding an NF-κB solution to the wells in which the NF-κB (p65 protein) consensus binding sequence was immobilized and after washing the resultant. By this measurement method, the higher the binding capacity of the oligonucleotide to the NF-κB, the smaller amount of the NF-κB quantified by the ELISA.
More concretely, the above-described measurement was carried out as follows concretely: Each SODN solution was serially diluted with Complete Binding Buffer contained in the kit to prepare test samples (common ratio: 3-fold, 4 times, n=3). To each well, 30 μL of the test sample was added. To the wells of the control and blank, Complete Binding Buffer was added. To each well, 20 μL of the Jurkat, TPA and CI-Stimulated, Nuclear Extract contained in the kit, after dilution with Complete Lysis Buffer to a concentration of 125 μg/mL, was added. To the wells of the blank, Complete Lysis Buffer was added. After incubation for 1 hour with shaking, each well was washed with 1× Wash Buffer contained in the kit, and an anti-NF-κB (p65 protein) antibody was added, followed by incubation for 1 hour. Each well was washed with 1× Wash Buffer, and the Developing Solution contained in the kit was added. After allowing coloration for 10 minutes, the Stop Solution was added to stop the reaction, and the absorbances at 450 nm and 630 nm were measured.
The binding capacities of the partially phosphorothioated oligonucleotides (the bonds between only all of the nucleotides constituting the consensus sequence in both strands are phosphorothioated, hereinafter also referred to as “PSODN”) of SODNs 7, 8, 9, 16, 17 and 30 of the present invention to the NF-κB (p65 protein) were tested in the same manner as described above.

NF-kB p52 (NFKB2) = molecular target: T1, NF-kB p52 (NFKB2); experiment: competition; conditions: protein: extract; tags: Raji nuclear extract, Active Motif
Description: (§4) The study was carried out in basically the same manner as in the above-described primary screening. The activities to inhibit the binding of various NF-κB family proteins to the consensus NF-κB binding site were compared under the conditions of common ratio of 3-fold, 6 times, n=2. As a control for comparison, fully phosphorothioated decoy oligonucleotide […] (SEQ ID NO:103) was used. The binding inhibition tests against various NF-κB family proteins were conducted using NF-κB Family TransAM Kit (ACTIVE MOTIF), and using NF-κB molecules in the Jurkat, TPA and CI-Stimulated, Nuclear Extract (ACTIVE MOTIF) for p50, and using NF-κB molecules in the Raji nuclear extract (ACTIVE MOTIF) for Rel-B and p52. As the primary antibodies, anti-NF-κB p50 antibody, anti-NF-κB p52 antibody and anti-Rel-B antibody were used, respectively, and the secondary antibody was HRP-labeled anti-rabbit IgG antibody in all cases.
(§5) More concretely, the above-described measurements were carried out as follows: Each oligonucleotide solution was serially diluted with Complete Binding Buffer to prepare test samples. Each of the test samples was added to the wells in an amount of 30 μL per well, and Complete Binding Buffer was added to the wells of the control and blank. Nuclear extract diluted with Complete Lysis Buffer was added to the wells in an amount of 20 μL per well, and Complete Lysis Buffer was added to the wells of blank. After incubation for 1 hour with shaking, each well was washed with 1× Wash Buffer, and the primary antibody was added, followed by incubation for 1 hour. Each well was washed with 1× Wash Buffer, and the secondary antibody was added, followed by incubation for 1 hour. Each well was washed with 1× Wash Buffer, and the Developing Solution was added. After allowing coloration for 10 minutes, the Stop Solution was added to stop the reaction, and the absorbances at 450 nm and 630 nm were measured.
(§6) The absorbance at 630 nm was subtracted from the absorbance at 450 nm and the mean value of the blanks was further subtracted from the resultant, and the percentage of the mean value of each concentration based on the mean value of the controls was calculated.

NF-kB p50 (NFKB1) = NF-kB p50 (NFKB1) (UniProt P19838 P19838:1-433); experiment: competition; conditions: protein: extract; tags: TPA and CI-stimulated Jurkat nuclear extract, Active Motif
Description: as §4, §5, §6

NF-kB p65 (RelA) [3] = molecular target: T2, NF-kB p65 (RelA); experiment: competition; primary screen >5; conditions: protein: extract; tags: TPA and CI-stimulated Jurkat nuclear extract, Active Motif TransAM kit
Description: as §1, §2, §3

NF-kB p65 (RelA) [4] = molecular target: T2, NF-kB p65 (RelA); experiment: competition; primary screen 2.01; conditions: protein: extract; tags: TPA and CI-stimulated Jurkat nuclear extract, Active Motif TransAM kit
Description: as §1, §2, §3

NF-kB p65 (RelA) [5] = molecular target: T2, NF-kB p65 (RelA); experiment: competition; primary screen 1.31; conditions: protein: extract; tags: TPA and CI-stimulated Jurkat nuclear extract, Active Motif TransAM kit
Description: as §1, §2, §3

NF-kB p65 (RelA) [6] = molecular target: T2, NF-kB p65 (RelA); experiment: competition; primary screen 1.37; conditions: protein: extract; tags: TPA and CI-stimulated Jurkat nuclear extract, Active Motif TransAM kit
Description: as §1, §2, §3

NF-kB p50 (NFKB1), sequence (P19838 1-433, one chain of several): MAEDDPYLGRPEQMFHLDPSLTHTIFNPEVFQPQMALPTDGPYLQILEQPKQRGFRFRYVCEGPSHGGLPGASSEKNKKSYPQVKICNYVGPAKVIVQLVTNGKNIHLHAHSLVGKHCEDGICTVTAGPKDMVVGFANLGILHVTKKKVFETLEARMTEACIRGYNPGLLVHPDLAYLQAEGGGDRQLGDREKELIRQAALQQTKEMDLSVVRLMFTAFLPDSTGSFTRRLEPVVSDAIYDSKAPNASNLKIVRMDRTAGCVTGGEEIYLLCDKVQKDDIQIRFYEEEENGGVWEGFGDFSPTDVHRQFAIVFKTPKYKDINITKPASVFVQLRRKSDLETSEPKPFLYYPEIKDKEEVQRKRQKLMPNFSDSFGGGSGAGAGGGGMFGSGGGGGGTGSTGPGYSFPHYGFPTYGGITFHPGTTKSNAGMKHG
T2 sequence (Q04206 whole entry, one chain of several): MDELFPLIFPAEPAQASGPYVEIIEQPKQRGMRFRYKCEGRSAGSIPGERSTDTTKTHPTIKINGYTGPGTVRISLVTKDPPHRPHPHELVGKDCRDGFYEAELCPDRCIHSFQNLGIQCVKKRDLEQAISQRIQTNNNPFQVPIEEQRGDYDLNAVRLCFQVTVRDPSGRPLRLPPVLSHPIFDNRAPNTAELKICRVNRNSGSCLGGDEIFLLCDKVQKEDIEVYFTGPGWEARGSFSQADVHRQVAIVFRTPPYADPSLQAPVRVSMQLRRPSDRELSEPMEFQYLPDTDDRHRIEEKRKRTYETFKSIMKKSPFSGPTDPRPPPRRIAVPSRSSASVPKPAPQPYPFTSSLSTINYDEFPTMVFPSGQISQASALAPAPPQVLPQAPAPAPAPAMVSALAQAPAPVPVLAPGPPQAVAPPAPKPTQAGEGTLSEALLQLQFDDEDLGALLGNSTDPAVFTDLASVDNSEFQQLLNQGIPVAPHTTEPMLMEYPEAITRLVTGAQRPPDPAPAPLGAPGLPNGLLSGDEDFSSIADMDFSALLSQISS

Binder | IC50 (NF-kB p65 (RelA) [2]) | IC50 (NF-kB p52 (NFKB2)) | IC50 (NF-kB p50 (NFKB1)) | other results
B1 | – | – | – | IC50 (NF-kB p65 (RelA) [1]): 2.58 nM
B2 | 0.54 nM | 1.55 nM | 0.91 nM | –
B3 | – | – | – | IC50 (NF-kB p65 (RelA) [3]): 7.33 nM
B4 | 0.54 nM | 3.01 nM | 1.02 nM | –
B5 | – | – | – | IC50 (NF-kB p65 (RelA) [4]): 2.12 nM
B6 | – | – | – | IC50 (NF-kB p65 (RelA) [5]): 1.81 nM
B7 | 0.48 nM | 2.11 nM | 0.69 nM | –
B8 | – | – | – | IC50 (NF-kB p65 (RelA) [6]): 1.98 nM
B9 | – | – | – | IC50 (NF-kB p65 (RelA) [4]): 1.88 nM
